Laboratory results reported in patent US20250144178A1, “PHARMACEUTICAL COMPOSITION FOR CANCER TREATMENT COMPRISING FUSION PROTEIN INCLUDING IL-12 AND ANTI-FAP ANTIBODY AND ANTICANCER AGENT” (KANAPH THERAPEUTICS INC., priority 2022, published 2025).
Like-named read-outs stand apart in the source and are kept apart here.

Columns and labels:
[1] = test system: FAP-overexpressing mouse colorectal cancer CT26; assay: Tumor growth inhibition by IL-12 mutation, FAP-overexpressing CT26, single i.v. dose; assay type: in vivo, BALB/c mice; conditions: 10 μg i.v. once, FIG. 28
Procedure: In order to evaluate the change in IL-12 activity according to the presence and extent of amino acid mutation, FAP-overexpressing mouse colorectal cancer CT26 was prepared by resuspending in PBS at a concentration of 5×10^5 cells/100 μl, and the tumor growth inhibitory ability was evaluated in a tumor animal model prepared by transplantation of the cells into 5-week-old female BALB/c mice.
Specifically, when the size of the tumor in the model reached 100 mm^3, the mice were randomly divided into groups. 100 μl of phosphate buffered saline (PBS) was administered once via tail vein injection of the control, and each of T1.01m, T1.02m and T1.03m was intravenously administered once at a dose of 10 μg.

[2] = test system: LLC1 lung cancer with NIH-3T3 overexpressing FAP; assay: Cancer targeting efficacy, LLC1 co-injected with FAP overexpressing NIH-3T3; assay type: in vivo, mouse; conditions: FIG. 32
Description: In order to compare the anticancer efficacy according to the cancer targeting of the dual antibody-type fusion protein in which the anti-FAP sequence structure and the IL-12 sequence structure form a Knob-in-Hole structure, the tumor growth inhibitory ability was identified in an animal model co-injected with NIH-3T3 cell overexpressing FAP, a mouse fibroblast cell line, and LLC1, a mouse lung cancer cell line, in a 1:1 ratio.
Specifically, for drug efficacy evaluation, when the size of the tumor reached 70 to 100 mm^3, the mice were randomly divided into groups. As the control, PBS was intraperitoneally administered twice a week. The group administered with T1.16m or T1.17m alone, the group administered with T1.16m and T1.17m in combination (T1.16m+T1.17m), and the group administered with T1.03m were used as test groups to evaluate the tumor growth inhibitory ability. T1.16m and T1.17m, which are dimers of anti-FAP and IL-12, respectively, were intraperitoneally administered twice a week at a dose of 0.01 μg, and T1.03m, which is a monomer fusion protein, was intraperitoneally administered twice a week at a dose of 0.02 μg to observe the tumor growth inhibitory ability.

[3] = test system: mouse FAP overexpressing B16F10 melanoma; assay: Melanoma model, mouse FAP overexpressing B16F10; assay type: in vivo, C57BL/6J mice; conditions: during the test period
Procedure: In order to identify the anticancer effect through immune activation of the fusion protein, mouse FAP was overexpressed in the mouse melanoma cell line B16F10, which is known to have little immune cell infiltration, and then transplanted into C57BL/6J mice, and the tumor growth inhibitory ability was evaluated.
Specifically, the cells in culture were resuspended in Hanks' Balanced salt solution (HBSS, Gibco), and then 100 μl of 1×10^6 tumor cells per each mouse were transplanted into the subcutaneous region of the left the dorsal flank side of 6-week-old C57BL/6J mice.
(§1) Next, for drug efficacy evaluation, when the size of the tumor reached 70 to 100 mm^3, the mice were randomly divided into groups. As the control, PBS was administered, and as the test group, T1.03m was intravenously administered once at a dose of 10 μg and 100 μg.

[4] = molecular target: T1, recombinant mouse FAP (Mus musculus, UniProt P97321); assay: Surface plasmon resonance binding to recombinant mouse FAP; conditions: SPR, 2 μg/ml protein, FIGS. 13 and 14
T1 sequence (P97321 1-761): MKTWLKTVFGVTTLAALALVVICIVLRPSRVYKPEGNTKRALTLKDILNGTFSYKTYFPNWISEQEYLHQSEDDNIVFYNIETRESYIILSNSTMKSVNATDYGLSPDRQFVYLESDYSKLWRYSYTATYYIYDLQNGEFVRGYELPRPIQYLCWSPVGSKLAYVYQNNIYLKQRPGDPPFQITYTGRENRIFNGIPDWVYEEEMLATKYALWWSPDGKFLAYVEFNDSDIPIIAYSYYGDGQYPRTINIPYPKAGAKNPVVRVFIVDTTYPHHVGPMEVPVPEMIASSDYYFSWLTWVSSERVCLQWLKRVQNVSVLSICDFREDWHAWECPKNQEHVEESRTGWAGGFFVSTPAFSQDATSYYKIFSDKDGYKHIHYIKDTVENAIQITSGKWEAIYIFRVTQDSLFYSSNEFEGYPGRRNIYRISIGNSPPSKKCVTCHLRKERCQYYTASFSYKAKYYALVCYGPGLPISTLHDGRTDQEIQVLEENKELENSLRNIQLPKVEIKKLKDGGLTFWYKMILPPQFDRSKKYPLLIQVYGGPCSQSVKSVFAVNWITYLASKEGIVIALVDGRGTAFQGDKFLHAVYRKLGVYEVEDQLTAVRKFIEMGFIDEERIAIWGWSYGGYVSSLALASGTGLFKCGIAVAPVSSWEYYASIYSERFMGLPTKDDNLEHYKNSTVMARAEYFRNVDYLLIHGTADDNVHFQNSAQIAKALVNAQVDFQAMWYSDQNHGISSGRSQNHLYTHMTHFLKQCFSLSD
Procedure: The surface of the CM5 chip was activated with a 1:1 mixture of […] (N-hydroxysuccinimide) and […] (1-Ethyl-3-(3-dimethylaminopropyl) carbodiimide), and 25 μg/ml of anti-mouse IgG (Fc) antibody was immobilized for 400 seconds at a rate of 10 μl/min. The remaining active ester groups were blocked with 1 M ethanolamine. T1.01m, T1.02m and T1.03m were diluted to 2 μg/ml and reacted on the CM5 chip immobilized with the anti-mouse IgG (Fc) antibody. The recombinant mouse FAP was diluted to 200 nM in 1×HBS-EP+buffer solution and diluted by serial dilution. The diluted recombinant mouse FAP was reacted at a rate of 30 μl/min. The association and dissociation times were 180 seconds and 400 seconds, respectively. After the dissociation, stabilization was performed for 60 seconds, and then a regeneration was performed for 30 seconds with a 10 mM glycine pH 1.5 solution at a rate of 30 μl/min.

[5] = test system: FAP-overexpressing mouse colorectal cancer cell line CT26 cells; assay: Single administration of T1.03m in FAP-overexpressing CT26 model; assay type: in vivo, BALB/c mice
Procedure: Specifically, the tumor cells were transplanted into the right dorsal flank side of 6-week-old BALB/c mice, and when the size of the tumor of the animal model reached 70 to 100 mm^3, the mice were randomly divided into groups and the administration was performed. As the control, PBS was administered, and as the test group, 100 μl of T1.03m was intravenously administered once at a dose of 2 μg, 10 μg and 100 μg. The size of the tumor was measured in the same manner as in Example 4.1.

[6] = test system: LLC1 lung cancer with NIH-3T3 overexpressing FAP; assay type: in vivo, C57BL/6J mice
Procedure: Specifically, the NIH-3T3 cell line overexpressing FAP and the LLC1 cells were resuspended in Hanks' Balanced salt solution (HBSS, Gibco) at a concentration of 1×10^6 cells/50 μl, respectively, and the cells were mixed in a 1:1 ratio, and then 100 μl per each mouse was transplanted into the subcutaneous region of the right flank of 6-week-old C57BL/6J mice using a 1 cc syringe (25G).
as §1

[7] = test system: HEK-Blue IL-12 cells; assay: Signaling ability in IL-12 recognizing cells (STAT4 inducible SEAP reporter); assay type: cell-based, human; conditions: serial dilution from 4 nM, 24 hours, FIG. 18
Procedure: The HEK-Blue IL-12 cell line transformed with the IL-12 receptor gene and the STAT4 inducible SEAP reporter gene into HEK293 cells, which are human embryonic kidney fibroblasts, was obtained from Invivogen (San Diego, USA). The HEK-Blue IL-12 cells were maintained in DMEM (GIBCO) containing 10% FBS (GIBCO), 100 μg/ml Normocin and 1×HEK-Blue selection.
Specifically, the HEK-Blue IL-12 cell line, which is an IL-12 recognizing cell, was diluted to 2.8×10^5 cells/ml and dispensed at 180 μl/well. Recombinant human IL-12, T1.01m, T1.02m, T1.03m and T1.12m were suspended at 4 nM and diluted by serial dilution. HEK-Blue IL-12 cells were treated with the diluted recombinant human IL-12, T1.01m, T1.02m, T1.03m and T1.12m. After 24 hours of treatment, the cell supernatant was collected and mixed with QUANTI-Blue Solution (Invivogen) in a 96-well plate. The reporter expression level was measured at 620 nm using a spectrophotometer (Thermo Fisher).

B1: T1.03m: K&H bispecific: anti-mu FAP/mu IL-12 mut2, mu IgG2a DANG (seq18, seq19, seq22) (antibody)
heavy: QVQLQQSGAELARPGASVNLSCKASGYTFTNNGINWLKQRTGQGLEWIGEIYPRSTNTLYNEKFKGKATLTADRSSNTAYMELRSLTSEDSAVYFCARTLTAPFAFWGQGTLVTVSAAKTTAPSVYPLAPVCGDTTGSSVTLGCLVKGYFPEPVTLTWNSGSLSSGVHTFPAVLQSDLYTLSSSVTVTSSTWPSQSITCNVAHPASSTKVDKKIEPRGPTIKPCPPCKCPAPNLLGGPSVFIFPPKIKDVLMISLSPIVTCVVVAVSEDDPDVQISWFVNNVEVHTAQTQTHREDYGSTLRVVSALPIQHQDWMSGKEFKCKVNNKDLPAPIERTISKPKGSVRAPQVYVLPPPEEEMTKKQVTLWCMVTDFMPEDIYVEWTNNGKTELNYKNTEPVLDSDGSYFMYSKLRVEKKNWVERNSYSCSVVHEGLHNHHTTKSFSRTPGK
light: QIVLTQSPAIMSASPGEKVTMTCSASSGVNFMHWYQQKSGTSPKRWIFDTSKLASGVPARFSGSGSGTSYSLTISSMEAEDAATYYCQQWSFNPPTFGGGTKLEIKRADAAPTVSIFPPSSEQLTSGGASVVCFLNNFYPKDINVKWKIDGSERQNGVLNSWTDQDSKDSTYSMSSTLTLTKDEYERHNSYTCEATHKTSTSPIVKSFNRNEC
chain: MWELEKDVYVVEVDWTPDAPGETVNLTCDTPEEDDITWTSDQRHGVIGSGKTLTITVKEFLDAGQYTCHKGGETLSHSHLLLHKKENGIWSTEILKNFKNKTFLKCEAPNYSGRFTCSWLVQRNMDLKFNIKSSSSSPDSRAVTCGMASLSAEKVTLDQRDYEKYSVSCQEDVTCPTAEETLPIELALEARQQNKYENYSTSFFIRDIIKPDPPKNLQMKPLKNSQVEVSWEYPDSWSTPHSYFSLKFFVRIQAAAEKMAETEEGCNQKGAFLVEKTSTEVQCKGGNVCVQAQDRYYNSSCSKWACVPCRVRSGGGGSGGGGSGGGGSRVIPVSGPARCLSQSRNLLKTTDDMVKTAREKLKHYSCTAEDIDHEDITRDQTSTLKTCLPLELHKNESCLATRETSSTTRGSCLPPQKTSLMMTLCLGSIYEDLKMYQTEFQAINAALQNHNHQQIILDKGMLVAIDELMQSLNHNGETLRQKPPVGEADPYRVKMKLCILLHAFSTRVVTINRVMGYLSSAGGGGSGGGGSEPRGPTIKPCPPCKCPAPNLLGGPSVFIFPPKIKDVLMISLSPIVTCVVVAVSEDDPDVQISWFVNNVEVHTAQTQTHREDYGSTLRVVSALPIQHQDWMSGKEFKCKVNNKDLPAPIERTISKPKGSVRAPQVYVLPPPEEEMTKKQVTLSCAVTDFMPEDIYVEWTNNGKTELNYKNTEPVLDSDGSYFMVSKLRVEKKNWVERNSYSCSVVHEGLHNHHTTKSFSRTPGK
- tumor growth inhibitory ability compared to the control ([1]; 15 days after administration, control PBS): excellent tumor growth inhibitory ability
- tumor growth inhibitory ability compared to the group administered with T1.01m [1]: reduced
- tumor growth inhibitory ability compared to the control ([2]; 0.02 μg i.p. twice a week, 10 days after administration, control PBS): excellent tumor growth inhibitory ability
- tumor growth inhibitory ability compared with T1.16m or T1.17m alone and their combination ([2]; T1.03m 0.02 μg, T1.16m and T1.17m 0.01 μg, i.p. twice a week): excellent tumor growth inhibitory ability
- change in body weight [3]: No change in body weight
- Binding to recombinant mouse FAP [4]: may bind to recombinant mouse FAP to specifically target FAP
- tumor growth inhibitory ability compared to the control ([5]; 2 μg, 10 μg and 100 μg i.v. once, control PBS, FIG. 29): high tumor growth inhibitory ability
- change in body weight ([5]; during the test period): No change in body weight
- tumor growth inhibitory ability compared to the control ([6]; 10 μg or 100 μg i.v. once, control PBS, FIG. 31): excellent tumor growth inhibitory ability
- change in body weight ([6]; mouse, in vivo): No change in body weight
- IL-12 recognition / STAT4 reporter gene expression (620 nm absorbance) [7]: IL-12 was recognized, and STAT4 expressed a reporter gene by inducing phosphorylation
